Measurements reported in PMC10349104.
Where “and” joins values, the source holds several entries; their conditions need not be identical. Equal entries are not always repeated.

Experiments:
[1] = target: EVA-A(Y44A) (A. americanum); test: SPR
[2] = target: EVA-A(C8) (Amblyomma americanum); test: SPR
[3] = target: EVA-A(DN) (Amblyomma americanum); test: SPR
[4] = target: EVA-A(DC) (Amblyomma americanum); test: SPR
[5] = target: EVA-A(L39P) (Amblyomma americanum); test: SPR
[6] = target: EVA-A(C8) (A. americanum); test: SPR
[7] = target: EVA-A(1-98) (A. americanum); test: SPR
[8] = target: EVA-A(21-102) (A. americanum); test: SPR
[9] = target: EVA-A(L39P) (A. americanum); test: SPR
[10] = target: EVA-A(Y44A) (Amblyomma americanum); test: SPR
EVA-4 = EVA-4 (UniProt P0C8E9); test: not stated; Kd of EVA-4 for human chemokines, three readings (source data of Supplementary Fig. 7); method and conditions not told for EVA-4

Chain of CCL21 (O00585 24-134): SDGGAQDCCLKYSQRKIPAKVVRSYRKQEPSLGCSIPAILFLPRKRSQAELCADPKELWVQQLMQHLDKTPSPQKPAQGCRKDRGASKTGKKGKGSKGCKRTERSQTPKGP
Chain of CCL22 (O00626 25-93): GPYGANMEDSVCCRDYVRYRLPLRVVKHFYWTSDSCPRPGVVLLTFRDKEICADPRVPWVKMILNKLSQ
Chain of CCL13 (Q99616 17-98): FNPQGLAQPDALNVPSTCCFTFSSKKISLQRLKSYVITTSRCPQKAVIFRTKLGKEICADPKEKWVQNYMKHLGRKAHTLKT
Chain of CCL13, Q99616 17-98 (ligand; other documents disagree on this pair) (Q99616 17-98): as above
Chain of CCL11 (P51671 24-97): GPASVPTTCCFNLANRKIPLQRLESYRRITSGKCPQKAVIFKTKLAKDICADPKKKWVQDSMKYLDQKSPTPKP
Chain of CCL5 (P13501 24-91): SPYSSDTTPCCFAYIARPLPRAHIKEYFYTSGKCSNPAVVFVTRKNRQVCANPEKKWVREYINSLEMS
Chain of CCL26 (Q9Y258 24-94): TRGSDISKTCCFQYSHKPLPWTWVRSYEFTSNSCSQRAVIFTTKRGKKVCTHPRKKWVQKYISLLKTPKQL

Substance | Kd [1] [nM] | koff [1] [s⁻¹] | kon [1] [M⁻¹ s⁻¹] | Kd [3] | koff [3] | kon [3] | Kd [4] | kon [4] | Kd [5] | kon [5] | Kd [7] [nM] | koff [7] [s⁻¹] | kon [7] [M⁻¹ s⁻¹] | Kd [8] [nM] | koff [8] [s⁻¹] | kon [8] [M⁻¹ s⁻¹] | Kd [9] [nM] | Kd [10] | koff [10] | kon [10] | further results
CCL13 (from UniProt Q99616 17-98) (ligand) | < 0.1 | < 0.0001 | 2.68e+06 | 0.298 nM and 0.304 nM and 0.285 nM | 0.000931 s⁻¹ and 0.000845 s⁻¹ and 0.000833 s⁻¹ | 3.12e+06 M⁻¹ s⁻¹ and 2.78e+06 M⁻¹ s⁻¹ and 2.92e+06 M⁻¹ s⁻¹ | 1.4 nM (2×) and 1.45 nM | 448000 M⁻¹ s⁻¹ and 461000 M⁻¹ s⁻¹ and 466000 M⁻¹ s⁻¹ | 0.0116 nM and 0.0158 nM and 0.035 nM | 2.5e+06 M⁻¹ s⁻¹ and 4.09e+06 M⁻¹ s⁻¹ and 3.18e+06 M⁻¹ s⁻¹ | 1.42 | 0.00063 | 458000 | 0.3 | 0.00087 | 2.94e+06 | < 0.1 | 0.0154 nM and 0.0339 nM and 0.0439 nM | 5.53e-05 s⁻¹ and 6.98e-05 s⁻¹ and 0.000105 s⁻¹ | 3.58e+06 M⁻¹ s⁻¹ and 2.06e+06 M⁻¹ s⁻¹ and 2.4e+06 M⁻¹ s⁻¹ | Kd [2]: 2.74 nM and 3.26 nM; koff [2]: 0.00454 s⁻¹ and 0.00359 s⁻¹; kon [2]: 1.66e+06 M⁻¹ s⁻¹ and 1.1e+06 M⁻¹ s⁻¹; koff [4]: 0.000625 s⁻¹ and 0.000669 s⁻¹ and 0.000651 s⁻¹; Kd [6]: 2.91 nM; koff [6]: 0.00423 s⁻¹; kon [6]: 1.47e+06 M⁻¹ s⁻¹; koff [9]: < 0.0001 s⁻¹; kon [9]: 3.26e+06 M⁻¹ s⁻¹
CCL22 (from UniProt O00626 25-93) (ligand) | 11.2 | 0.00818 | 766000 | 64.9 nM and 73.9 nM and 46 nM | 0.00186 s⁻¹ and 0.00173 s⁻¹ and 0.00125 s⁻¹ | 28700 M⁻¹ s⁻¹ and 23400 M⁻¹ s⁻¹ and 27200 M⁻¹ s⁻¹ | 125 nM | 37600 M⁻¹ s⁻¹ and 12800 M⁻¹ s⁻¹ | 1.64 nM and 1.17 nM and 1.57 nM | 763000 M⁻¹ s⁻¹ and 1.28e+06 M⁻¹ s⁻¹ and 1.05e+06 M⁻¹ s⁻¹ | 125 | 0.00084 | 29000 | 61.6 | 0.00161 | 26000 | 1.46 | 6.2 nM and 14.4 nM and 13.1 nM | 0.0056 s⁻¹ and 0.00713 s⁻¹ and 0.0118 s⁻¹ | 903000 M⁻¹ s⁻¹ and 496000 M⁻¹ s⁻¹ and 899000 M⁻¹ s⁻¹ | koff [5]: 0.00125 s⁻¹ and 0.00151 s⁻¹ and 0.00165 s⁻¹; koff [9]: 0.00292 s⁻¹; kon [9]: 1.03e+06 M⁻¹ s⁻¹
CCL5 (from UniProt P13501 24-91) (ligand) | 0.23 | 0.00021 | 981000 | 2.42 nM (2×) and 2.72 nM | 0.00208 s⁻¹ and 0.00189 s⁻¹ and 0.00187 s⁻¹ | 860000 M⁻¹ s⁻¹ and 783000 M⁻¹ s⁻¹ and 688000 M⁻¹ s⁻¹ | 0.973 nM and 1.11 nM and 1 nM | 340000 M⁻¹ s⁻¹ and 372000 M⁻¹ s⁻¹ and 348000 M⁻¹ s⁻¹ | 0.0849 nM and 0.0557 nM and 0.0372 nM | 1.12e+06 M⁻¹ s⁻¹ and 1.98e+06 M⁻¹ s⁻¹ and 1.48e+06 M⁻¹ s⁻¹ | 1.03 | 0.00033 | 354000 | 2.52 | 0.00195 | 777000 | < 0.1 | 0.145 nM and 0.294 nM and 0.251 nM | 0.000189 s⁻¹ and 0.000193 s⁻¹ and 0.000245 s⁻¹ | 1.31e+06 M⁻¹ s⁻¹ and 658000 M⁻¹ s⁻¹ and 976000 M⁻¹ s⁻¹ | Kd [2]: 15.9 nM and 16.3 nM and 16 nM; koff [2]: 0.0113 s⁻¹ and 0.012 s⁻¹ and 0.0111 s⁻¹; kon [2]: 712000 M⁻¹ s⁻¹ and 738000 M⁻¹ s⁻¹ and 697000 M⁻¹ s⁻¹; koff [4]: 0.000331 s⁻¹ and 0.000413 s⁻¹ and 0.00035 s⁻¹; koff [5]: 9.49e-05 s⁻¹ and 0.000111 s⁻¹ and 5.52e-05 s⁻¹; Kd [6]: 16 nM; koff [6]: 0.0115 s⁻¹; kon [6]: 716000 M⁻¹ s⁻¹; koff [9]: < 0.0001 s⁻¹; kon [9]: 1.53e+06 M⁻¹ s⁻¹
CCL26 (from UniProt Q9Y258 24-94) (ligand) | 2.94 | 0.00101 | 381000 | 9.99 nM and 8.95 nM and 8.79 nM | 0.000506 s⁻¹ and 0.000395 s⁻¹ and 0.000556 s⁻¹ | 50600 M⁻¹ s⁻¹ and 44200 M⁻¹ s⁻¹ and 63300 M⁻¹ s⁻¹ | 1.25 nM and 1.65 nM and 2.78 nM | 384000 M⁻¹ s⁻¹ and 407000 M⁻¹ s⁻¹ and 280000 M⁻¹ s⁻¹ | 0.183 nM and 0.176 nM and 0.197 nM | 2.75e+06 M⁻¹ s⁻¹ and 1.53e+06 M⁻¹ s⁻¹ and 3.62e+06 M⁻¹ s⁻¹ | 1.89 | 0.00048 | 357000 | 9.24 | 0.00049 | 53000 | 0.19 | 3.9 nM and 3.21 nM and 1.71 nM | 0.00136 s⁻¹ and 0.000659 s⁻¹ and 0.00101 s⁻¹ | 348000 M⁻¹ s⁻¹ and 205000 M⁻¹ s⁻¹ and 590000 M⁻¹ s⁻¹ | Kd [2]: 56.4 nM and 69.6 nM and 86.6 nM; koff [2]: 0.00101 s⁻¹ and 0.000925 s⁻¹ and 0.00104 s⁻¹; kon [2]: 17900 M⁻¹ s⁻¹ and 13300 M⁻¹ s⁻¹ and 12000 M⁻¹ s⁻¹; koff [4]: 0.000481 s⁻¹ and 0.000673 s⁻¹ and 0.000777 s⁻¹; koff [5]: 0.000504 s⁻¹ and 0.000271 s⁻¹ and 0.000714 s⁻¹; Kd [6]: 70.9 nM; koff [6]: 0.00099 s⁻¹; kon [6]: 14000 M⁻¹ s⁻¹; koff [9]: 0.00078 s⁻¹; kon [9]: 2.63e+06 M⁻¹ s⁻¹
CCL13, Q99616 17-98 (ligand; other documents disagree on this pair) |  |  |  |  |  |  |  |  |  |  |  |  |  |  |  |  |  |  |  |  | Kd (EVA-4): 258 nM and 234 nM and 267 nM
CCL21 (from UniProt O00585 24-134) (ligand) | 119 | 0.00356 | 36000 | 51.1 nM and 51.4 nM and 40 nM | 0.0125 s⁻¹ and 0.0092 s⁻¹ and 0.00995 s⁻¹ | 245000 M⁻¹ s⁻¹ and 179000 M⁻¹ s⁻¹ and 248000 M⁻¹ s⁻¹ | 30.1 nM and 12.1 nM and 11.4 nM | 77500 M⁻¹ s⁻¹ and 144000 M⁻¹ s⁻¹ and 154000 M⁻¹ s⁻¹ | 24.3 nM and 19.8 nM and 29.4 nM | 136000 M⁻¹ s⁻¹ and 225000 M⁻¹ s⁻¹ and 230000 M⁻¹ s⁻¹ | 17.8 | 0.00233 | 126000 | 47.5 | 0.0106 | 224000 | 24.5 | 135 nM and 40.8 nM and 180 nM | 0.00431 s⁻¹ and 0.00219 s⁻¹ and 0.00417 s⁻¹ | 32000 M⁻¹ s⁻¹ and 53800 M⁻¹ s⁻¹ and 23100 M⁻¹ s⁻¹ | koff [4]: 0.00233 s⁻¹ and 0.00174 s⁻¹ and 0.00177 s⁻¹; koff [5]: 0.00331 s⁻¹ and 0.00445 s⁻¹ and 0.00676 s⁻¹; koff [9]: 0.00484 s⁻¹; kon [9]: 197000 M⁻¹ s⁻¹
CCL11 (from UniProt P51671 24-97) (ligand) | 1.73 | 0.0015 | 877000 | 750 nM and 383 nM and 390 nM | 0.264 s⁻¹ and 0.203 s⁻¹ and 0.187 s⁻¹ | 352000 M⁻¹ s⁻¹ and 531000 M⁻¹ s⁻¹ and 480000 M⁻¹ s⁻¹ | 481 nM and 474 nM and 507 nM | 112000 M⁻¹ s⁻¹ and 72900 M⁻¹ s⁻¹ and 119000 M⁻¹ s⁻¹ | 3.46 nM and 2.95 nM and 3.55 nM | 1.2e+06 1/(M s) and 1.5e+06 1/(M s) (2×) | 487 | 0.0537 | 101000 | 507 | 0.218 | 454000 | 3.32 | 1.67 nM and 1.9 nM and 1.61 nM | 0.00144 s⁻¹ and 0.00137 s⁻¹ and 0.00169 s⁻¹ | 862000 M⁻¹ s⁻¹ and 719000 M⁻¹ s⁻¹ and 1.05e+06 M⁻¹ s⁻¹ | Kd [2]: 842 nM and 836 nM and 312 nM; koff [4]: 0.0537 s⁻¹ and 0.0345 s⁻¹ and 0.0604 s⁻¹; koff [5]: 0.00417 s⁻¹ and 0.00433 s⁻¹ and 0.00541 s⁻¹; Kd [6]: 663 nM; koff [6]: 0.196 s⁻¹; kon [6]: 236000 M⁻¹ s⁻¹; koff [9]: 0.00372 s⁻¹; kon [9]: 1.4e+06 M⁻¹ s⁻¹
CCL23 (ligand) |  |  |  | 0.168 nM and 0.972 nM and 0.384 nM |  | 53100 M⁻¹ s⁻¹ and 56200 M⁻¹ s⁻¹ and 152000 M⁻¹ s⁻¹ | 0.105 nM and 0.44 nM and 0.794 nM | 144000 M⁻¹ s⁻¹ and 85600 M⁻¹ s⁻¹ and 201000 M⁻¹ s⁻¹ | 1.15 nM and 0.794 nM and 1.49 nM | 107000 M⁻¹ s⁻¹ and 201000 M⁻¹ s⁻¹ and 113000 M⁻¹ s⁻¹ |  |  |  |  |  |  |  | 15.2 nM and 26.4 nM and 14.7 nM | 0.00168 s⁻¹ and 0.00185 s⁻¹ and 0.00176 s⁻¹ | 111000 M⁻¹ s⁻¹ and 70100 M⁻¹ s⁻¹ and 120000 M⁻¹ s⁻¹ | Kd (EVA-4): 7.43 nM and 7.41 nM and 7.39 nM; Kd [2]: 13 nM and 34.4 nM and 13.6 nM; koff [2]: 0.00116 s⁻¹ and 0.00157 s⁻¹ and 0.0012 s⁻¹; kon [2]: 89700 M⁻¹ s⁻¹ and 45800 M⁻¹ s⁻¹ and 87600 M⁻¹ s⁻¹; koff [5]: 0.000123 s⁻¹ and 0.00016 s⁻¹ and 0.000168 s⁻¹
